# Experimental data taken from patent US20230272119A1 (MARENGO THERAPEUTICS, published 2023).
# Tests used:
# [1] = biological target: T1, α-IGF1R heavy-LgBiT (SEQ ID NO: 119); experiment: NanoBiT, HC-LgBiT:LC-SmBiT:competing LC 1:1:1; competing lambda LC m63 (SEQ ID NO: 154)
# T1 construct: VH-CH1-linker-LgBiT; germline VH3-21*01
# [2] = biological target: T1, α-IGF1R heavy-LgBiT (SEQ ID NO: 119); experiment: NanoBiT, HC-LgBiT:LC-SmBiT:competing LC 1:1:1; competing lambda LC m72 (SEQ ID NO: 163)
# [3] = biological target: T1, α-IGF1R heavy-LgBiT (SEQ ID NO: 119); experiment: NanoBiT, HC-LgBiT:LC-SmBiT:competing LC 1:1:1; competing lambda LC m51 (SEQ ID NO: 142)
# [4] = biological target: T1, α-IGF1R heavy-LgBiT (SEQ ID NO: 119); experiment: NanoBiT, HC-LgBiT:LC-SmBiT:competing LC 1:1:1; competing lambda LC m69 (SEQ ID NO: 160)
# [5] = biological target: T2, α-neuropilin 1 heavy-LgBiT (SEQ ID NO: 131); experiment: NanoBiT, HC-LgBiT:LC-SmBiT:competing LC 1:1:1; competing lambda LC m45 (SEQ ID NO: 136)
# T2 construct: VH-CH1-linker-LgBiT; germline VH3-66*01
# [6] = biological target: T2, α-neuropilin 1 heavy-LgBiT (SEQ ID NO: …); experiment: NanoBiT, HC-LgBiT:LC-SmBiT:competing LC 1:1:1; competing lambda LC m54 (SEQ ID NO: 145)
# [7] = biological target: T2, α-neuropilin 1 heavy-LgBiT (SEQ ID NO: …); experiment: NanoBiT, HC-LgBiT:LC-SmBiT:competing LC 1:1:1; competing lambda LC m48 (SEQ ID NO: 139)
# [8] = biological target: T2, α-neuropilin 1 heavy-LgBiT (SEQ ID NO: …); experiment: NanoBiT, HC-LgBiT:LC-SmBiT:competing LC 1:1:1; competing lambda LC m63 (SEQ ID NO: 154)
# [9] = biological target: T2, α-neuropilin 1 heavy-LgBiT (SEQ ID NO: …); experiment: NanoBiT, HC-LgBiT:LC-SmBiT:competing LC 1:1:1; competing lambda LC m66 (SEQ ID NO: 157)
# [10] = biological target: T2, α-neuropilin 1 heavy-LgBiT (SEQ ID NO: …); experiment: NanoBiT, HC-LgBiT:LC-SmBiT:competing LC 1:1:1; competing lambda LC m72 (SEQ ID NO: 163)
# [11] = biological target: T2, α-neuropilin 1 heavy-LgBiT (SEQ ID NO: …); experiment: NanoBiT, HC-LgBiT:LC-SmBiT:competing LC 1:1:1; competing lambda LC m51 (SEQ ID NO: 142)
# [12] = biological target: T2, α-neuropilin 1 heavy-LgBiT (SEQ ID NO: …); experiment: NanoBiT, HC-LgBiT:LC-SmBiT:competing LC 1:1:1; competing lambda LC m69 (SEQ ID NO: 160)
# [13] = biological target: T3, α-IL23 heavy-LgBiT (SEQ ID NO: 140); experiment: NanoBiT, HC-LgBiT:LC-SmBiT:competing LC 1:1:1; competing kappa LC m27 (SEQ ID NO: 118)
# T3 construct: VH-CH1-linker-LgBiT; germline VH5-51*01
# [14] = biological target: T3, α-IL23 heavy-LgBiT (SEQ ID NO: 140); experiment: NanoBiT, HC-LgBiT:LC-SmBiT:competing LC 1:1:1; competing kappa LC m24 (SEQ ID NO: 115)
# [15] = biological target: T3, α-IL23 heavy-LgBiT (SEQ ID NO: 140); experiment: NanoBiT, HC-LgBiT:LC-SmBiT:competing LC 1:1:1; competing kappa LC m33 (SEQ ID NO: 124)
# [16] = biological target: T3, α-IL23 heavy-LgBiT (SEQ ID NO: 140); experiment: NanoBiT, HC-LgBiT:LC-SmBiT:competing LC 1:1:1; competing kappa LC m6 (SEQ ID NO: 97)
# [17] = biological target: T4, α-CD221 heavy-LgBiT (SEQ ID NO: 134); experiment: NanoBiT, HC-LgBiT:LC-SmBiT:competing LC 1:1:1; competing kappa LC m42 (SEQ ID NO: 133)
# T4 construct: VH-CH1-linker-LgBiT; germline VH1-69*01
# [18] = biological target: T4, α-CD221 heavy-LgBiT (SEQ ID NO: 134); experiment: NanoBiT, HC-LgBiT:LC-SmBiT:competing LC 1:1:1; competing kappa LC m33 (SEQ ID NO: 124)
# [19] = biological target: T4, α-CD221 heavy-LgBiT (SEQ ID NO: 134); experiment: NanoBiT, HC-LgBiT:LC-SmBiT:competing LC 1:1:1; competing kappa LC m21 (SEQ ID NO: 112)
# [20] = biological target: T4, α-CD221 heavy-LgBiT (SEQ ID NO: 134); experiment: NanoBiT, HC-LgBiT:LC-SmBiT:competing LC 1:1:1; competing kappa LC m15 (SEQ ID NO: 106)
# [21] = biological target: T5, α-death receptor 5 heavy-LgBiT (SEQ ID NO: 137); experiment: NanoBiT, HC-LgBiT:LC-SmBiT:competing LC 1:1:1; competing kappa LC m36 (SEQ ID NO: 127)
# T5 construct: VH-CH1-linker-LgBiT; germline VH3-20*01
# [22] = biological target: T5, α-death receptor 5 heavy-LgBiT (SEQ ID …); experiment: NanoBiT, HC-LgBiT:LC-SmBiT:competing LC 1:1:1; competing kappa LC m33 (SEQ ID NO: 124)
# [23] = biological target: T5, α-death receptor 5 heavy-LgBiT (SEQ ID …); experiment: NanoBiT, HC-LgBiT:LC-SmBiT:competing LC 1:1:1; competing kappa LC m18 (SEQ ID NO: 109)
# [24] = biological target: T5, α-death receptor 5 heavy-LgBiT (SEQ ID …); experiment: NanoBiT, HC-LgBiT:LC-SmBiT:competing LC 1:1:1; competing kappa LC m12 (SEQ ID NO: 103)
# [25] = biological target: T6, α-IFN heavy-LgBiT (SEQ ID NO: 107); experiment: NanoBiT, HC-LgBiT:LC-SmBiT:competing LC 1:1:1; competing lambda LC m48 (SEQ ID NO: 139)
# T6 construct: VH-CH1-linker-LgBiT; germline VH5-51*01
# [26] = biological target: T6, α-IFN heavy-LgBiT (SEQ ID NO: 107); experiment: NanoBiT, HC-LgBiT:LC-SmBiT:competing LC 1:1:1; competing lambda LC m72 (SEQ ID NO: 163)
# [27] = biological target: T6, α-IFN heavy-LgBiT (SEQ ID NO: 107); experiment: NanoBiT, HC-LgBiT:LC-SmBiT:competing LC 1:1:1; competing lambda LC m69 (SEQ ID NO: 160)
# [28] = biological target: T7, α-IL6R heavy-LgBiT (SEQ ID NO: 125); experiment: NanoBiT, HC-LgBiT:LC-SmBiT:competing LC 1:1:1; competing lambda LC m45 (SEQ ID NO: 136)
# T7 construct: VH-CH1-linker-LgBiT; germline VH3-9*01
# [29] = biological target: T7, α-IL6R heavy-LgBiT (SEQ ID NO: 125); experiment: NanoBiT, HC-LgBiT:LC-SmBiT:competing LC 1:1:1; competing lambda LC m54 (SEQ ID NO: 145)
# [30] = biological target: T7, α-IL6R heavy-LgBiT (SEQ ID NO: 125); experiment: NanoBiT, HC-LgBiT:LC-SmBiT:competing LC 1:1:1; competing lambda LC m48 (SEQ ID NO: 139)
# [31] = biological target: T7, α-IL6R heavy-LgBiT (SEQ ID NO: 125); experiment: NanoBiT, HC-LgBiT:LC-SmBiT:competing LC 1:1:1; competing lambda LC m63 (SEQ ID NO: 154)
# [32] = biological target: T7, α-IL6R heavy-LgBiT (SEQ ID NO: 125); experiment: NanoBiT, HC-LgBiT:LC-SmBiT:competing LC 1:1:1; competing lambda LC m66 (SEQ ID NO: 157)
binder,measurement,setting,value
"α-IGF1R light-SmBiT (SEQ ID NO: 120) (other, kappa light chain-linker-SmBiT; germline Vk3-20*01) light: EIVLTQSPGTLSVSPGERATLSCRASQSIGSSLHWYQQKPGQAPRLLIKYASQSLSGIPDRFSGSGSGTDFTLTISRLEPEDFAVYYCHQSSRLPHTFGQGTKVEIKRTVAAPSVFIFPPSDEQLKSGTASVVCLLNNFYPREAKVQWKVDNALQSGNSQESVTEQDSKDSTYSLSSTLTLSKADYEKHKVYACEVTHQGLSSPVTKSFNRGECGSSGGGGSGGGGSSGGVTGYRLFEEIL",Percent pairing,[1],99%
same,Percent pairing,[2],100%
same,Percent pairing,[3],95%
same,Percent pairing,[4],100%
"α-neuropilin 1 light-SmBiT (SEQ ID NO: 132) (other, kappa light chain-linker-SmBiT; germline Vk1-39*01) light: DIQMTQSPSSLSASVGDRVTITCRASQYFSSYLAWYQQKPGKAPKLLIYGASSRASGVPSRFSGSGSGTDFTLTISSLQPEDFATYYCQQYLGSPPTFGQGTKVEIKRTVAAPSVFIFPPSDEQLKSGTASVVCLLNNFYPREAKVQWKVDNALQSGNSQESVTEQDSKDSTYSLSSTLTLSKADYEKHKVYACEVTHQGLSSPVTKSFNRGECGSSGGGGSGGGGSSGGVTGYRLFEEIL",Percent pairing,[5],100%
same,Percent pairing,[6],100%
same,Percent pairing,[7],100%
same,Percent pairing,[8],100%
same,Percent pairing,[9],100%
same,Percent pairing,[10],100%
same,Percent pairing,[11],84%
same,Percent pairing,[12],100%
"α-IL23 light-SmBiT (SEQ ID NO: 141) (other, lambda light chain-linker-SmBiT; germline Vl1-40*01) light: QSVLTQPPSVSGAPGQRVTISCTGSSSNIGSGYDVHWYQQLPGTAPKLLIYGNSKRPSGVPDRFSGSKSGTSASLAITGLQSEDEADYYCASWTDGLSLVVFGGGTKLTVLGQPKANPTVTLFPPSSEELQANKATLVCLISDFYPGAVTVAWKADGSPVKAGVETTKPSKQSNNKYAASSYLSLTPEQWKSHRSYSCQVTHEGSTVEKTVAPTECSGSSGGGGSGGGGSSGGVTGYRLFEEIL",Percent pairing,[13],91%
same,Percent pairing,[14],93%
same,Percent pairing,[15],100%
same,Percent pairing,[16],96%
"α-CD221 light-SmBiT (SEQ ID NO: 135) (other, lambda light chain-linker-SmBiT; germline Vl3-19*01) light: SSELTQDPAVSVALGQTVRITCQGDSLRSYYATWYQQKPGQAPILVIYGENKRPSGIPDRFSGSSSGNTASLTITGAQAEDEADYYCKSRDGSGQHLVFGGGTKLTVLGQPKANPTVTLFPPSSEELQANKATLVCLISDFYPGAVTVAWKADGSPVKAGVETTKPSKQSNNKYAASSYLSLTPEQWKSHRSYSCQVTHEGSTVEKTVAPTECSGSSGGGGSGGGGSSGGVTGYRLFEEIL",Percent pairing,[17],100%
same,Percent pairing,[18],100%
same,Percent pairing,[19],95%
same,Percent pairing,[20],96%
"α-death receptor 5 light-SmBiT (SEQ ID NO: 138) (other, lambda light chain-linker-SmBiT; germline Vl3-19*01) light: SSELTQDPAVSVALGQTVRITCSGDSLRSYYASWYQQKPGQAPVLVIYGANNRPSGIPDRFSGSSSGNTASLTITGAQAEDEADYYCNSADSSGNHVVFGGGTKLTVLGQPKANPTVTLFPPSSEELQANKATLVCLISDFYPGAVTVAWKADGSPVKAGVETTKPSKQSNNKYAASSYLSLTPEQWKSHRSYSCQVTHEGSTVEKTVAPTECSGSSGGGGSGGGGSSGGVTGYRLFEEIL",Percent pairing,[21],95%
same,Percent pairing,[22],100%
same,Percent pairing,[23],100%
same,Percent pairing,[24],100%
"α-IFN light-SmBiT (SEQ ID NO: 108) (other, kappa light chain-linker-SmBiT; germline Vk3-20*01) light: EIVLTQSPGTLSLSPGERATLSCRASQSVSSSFFAWYQQKPGQAPRLLIYGASSRATGIPDRLSGSGSGTDFTLTITRLEPEDFAVYYCQQYDSSAITFGQGTRLEIKRTVAAPSVFIFPPSDEQLKSGTASVVCLLNNFYPREAKVQWKVDNALQSGNSQESVTEQDSKDSTYSLSSTLTLSKADYEKHKVYACEVTHQGLSSPVTKSFNRGECGSSGGGGSGGGGSSGGVTGYRLFEEIL",Percent pairing,[25],100%
same,Percent pairing,[26],100%
same,Percent pairing,[27],80%
"α-IL6R light-SmBiT (SEQ ID NO: 126) (other, kappa light chain-linker-SmBiT; germline Vk1-12*01) light: DIQMTQSPSSVSASVGDRVTITCRASQGISSWLAWYQQKPGKAPKLLIYGASSLESGVPSRFSGSGSGTDFTLTISSLQPEDFASYYCQQANSFPYTFGQGTKLEIKRTVAAPSVFIFPPSDEQLKSGTASVVCLLNNFYPREAKVQWKVDNALQSGNSQESVTEQDSKDSTYSLSSTLTLSKADYEKHKVYACEVTHQGLSSPVTKSFNRGECGSSGGGGSGGGGSSGGVTGYRLFEEIL",Percent pairing,[28],100%
same,Percent pairing,[29],100%
same,Percent pairing,[30],99%
same,Percent pairing,[31],84%
same,Percent pairing,[32],100%
